Data on 18 molecules can be found in patent US20220363736A1 (ICAHN SCHOOL OF MEDICINE AT MOUNT SINAI, published 2022).

Sequences and labels used below:
B1: monoclonal antibody 1F4 (hybridoma-produced, murine IgG2a) (antibody, V domains shown)
VH: QVHLQQSGSELRSPGSSVKLSCKDFDSEVFPIVYMRWIRQKPGHGFEWIGDILPSFGRTIYGEKFEDKATLDADTVSNTAYLELNSLTSEDSAIYYCARGDHGNWLAYWGQGTLVTVSA
VL: DIVMTQSHKFMSTSVGDRVTITCKASQDVSTNVAWYQQKPGQSPKLLIYWASTRHTGVPNRFTGIISGTDYTLTISSVQAEDRALYYCQQHYSAPWTFGGGTKLEIK
B2: monoclonal antibody 4B2 (hybridoma-produced, murine IgG2a) (antibody, V domains shown)
VH: QIQLVQSGPELKKPGETVKISCKASGFTFTDYPMHWVKQAPGKSLKWMGWINTETEEPTYSDDFKGRSPLSLETSASTTYLQINNLKNEDTSTYFCVRSGYYYGSTYAWFGYWGQGTLVTVSA
VL: DVVMTQIPLSLPVSLGDQASISCRSSQSLIHTNGDTFLHWYLQKPGQSPKLLIYKVSNRFSGVPDRFTGGGSGTDFTLKISRVEAEDLGIYFCSQSALFPYTFGGGTNLEIK
B3: monoclonal antibody 3G1 (hybridoma-produced, murine IgG2a) (antibody, V domains shown)
VH: QVQLQQSGAELMKPGASVKISCKATGYKFTSYWIGWVKQRPGHGLEWCGEIFPGSGSINYNEKFKGKATFTADTSSNTAYLQLTSLTSEDSAVYYCARGEDYYGSSYGAMDYWGQGTSLTVSS
VL: DVQITQSPSYLAASPGETITINCRASKSISKYVAWYQEKPGRTNKVLIYSGSILSFGNPSRFSGSGSGTDFTLTISSLEPEDFAMYYCQQHNEYPWTFGGGTKLEIK
B4: monoclonal antibody 4F11 (hybridoma-produced, murine IgG2b) (antibody, V domains shown)
VH: DVKLVESGGDLVKPGGSLKLSCAASGFTFSAYSMSWVRQTPERRLEWVATINTGGSFTYYPDSVKGRFTISRDNAKNTLYLQMSSLKSEDTAMYFCTRVSDYGNSAYFPYWGQGTLVIVFA
VL: QVVLTQSPALISASPGEKVTMTCSASSNVNYMSWYQQRPRSSPKPWIYLTSKLASGVPPRFSGSGSGTSYSLTISSMEAEDVATYYCQQWSSDPQTFGGGTKVEIK
B5: monoclonal antibody 1F2 (hybridoma-produced, murine IgG2a) (antibody, V domains shown)
VH: QVHLQQSGPEVARPGASVKLSCKASGYTFTDYYLNWVKQRPRQGLEWIGQIHPGSTNTYYNEKFKGKATLTADKSSSTAYMQLSSLTFEDSAVYFCAISLGDGYYVYAMVCWGQGTAVTVSS
VL: DIVMTQSQKFMSTSVGDRVSVTCKASQNVVTNVVWYQQKPGQSPKPLIYSASYRYSGVPDRFTGSGSGTDFTLTISNVQSEDLAEYCCQQYHSYPFTFGSGTKLEVK
B6: recombinantly expressed 4F11 IgG2b (antibody, V domains shown)
VH: B4 VH
VL: B4 VL
B7: 1F2 Fab (Fab, V domains shown)
VH: B5 VH
VL: B5 VL
B8: recombinantly expressed 4F11 polymeric IgA (antibody, V domains shown)
VH: B4 VH
VL: B4 VL
B9: recombinantly expressed 4F11 IgG2a (antibody, V domains shown)
VH: B4 VH
VL: B4 VL
B10: recombinantly expressed 4F11 IgG1 (antibody, V domains shown)
VH: B4 VH
VL: B4 VL
B11: recombinantly expressed 4F11 IgM (antibody, V domains shown)
VH: B4 VH
VL: B4 VL
B12: recombinantly expressed 4F11 monomeric IgA (antibody, V domains shown)
VH: B4 VH
VL: B4 VL
B13: recombinantly expressed 1F2 monomeric IgA (antibody, V domains shown)
VH: B5 VH
VL: B5 VL
B14: recombinantly expressed 1F2 IgM (antibody, V domains shown)
VH: B5 VH
VL: B5 VL
B15: recombinantly expressed 1F2 IgG2b (antibody, V domains shown)
VH: B5 VH
VL: B5 VL
B16: recombinantly expressed 1F2 IgG2a (antibody, V domains shown)
VH: B5 VH
VL: B5 VL
B17: recombinantly expressed 1F2 polymeric IgA (antibody, V domains shown)
VH: B5 VH
VL: B5 VL
B18: recombinantly expressed 1F2 IgG1 (antibody, V domains shown)
VH: B5 VH
VL: B5 VL

For orientation: EC50 (read off the curve) means the midpoint of the concentration-response curve. In general, Kd refers to a measure of binding affinity in units of concentration.

neuraminidase of the ancestral B/Lee/40 strain, sequence (P03474 whole entry): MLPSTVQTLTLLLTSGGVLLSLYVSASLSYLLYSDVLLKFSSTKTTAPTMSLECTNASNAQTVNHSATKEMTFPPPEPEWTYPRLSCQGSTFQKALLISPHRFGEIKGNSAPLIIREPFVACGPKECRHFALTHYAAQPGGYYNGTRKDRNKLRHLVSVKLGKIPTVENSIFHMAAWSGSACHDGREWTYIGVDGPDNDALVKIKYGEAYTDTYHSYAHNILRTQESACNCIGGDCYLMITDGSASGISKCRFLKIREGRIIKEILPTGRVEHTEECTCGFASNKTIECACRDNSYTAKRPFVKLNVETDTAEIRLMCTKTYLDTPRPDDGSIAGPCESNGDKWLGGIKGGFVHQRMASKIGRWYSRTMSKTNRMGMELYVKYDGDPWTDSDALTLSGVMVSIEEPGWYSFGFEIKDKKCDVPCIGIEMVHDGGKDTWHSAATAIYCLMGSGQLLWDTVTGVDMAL

The target of the first assay is recombinant neuraminidase (rNA) from B/Florida/04/2006 (influenza B virus B/Florida/04/06).
Assay: not given
On to B1, for which the EC50 (read off the curve) was determined as 0.05 µg/mL.

The next assay addresses neuraminidase of the ancestral B/Lee/40 strain (influenza B virus B/Lee/40, UniProt P03474 1-466). Kind of assay: ELISA on purified whole virus. A general note: In an ELISA, binding on a coated surface is turned into a signal by an enzyme label.
For B2, the binding result is reported as “binds”. Turning to B1, the binding result was “binds”. Same read-out and setting: the value for B3 was “binds”; that for B4 was “binds”.

Consider B5, for which the binding result is on record as “binds”.

A further assay deals with neuraminidase of wild type B/Malaysia/2506/04 virus (influenza B virus B/Malaysia/2506/04).
Assay: not given
B6 came in with an IC50 (read off the curve) of 0.2 µg/mL. The same measure, in the same setting: the same measure for B4: 0.2 µg/mL.

For a further assay the target is unchanged.
Assay: not given
The source holds these as a separate data set.
Molecule B1 gave an IC50 (read off the curve) of 4 µg/mL.

In the case of B3, the IC50 (read off the curve) is 3 µg/mL. The same measure, in the same setting: the same measure for B5: 2 µg/mL; for B7: 3 µg/mL.

The next assay addresses recombinant neuraminidase (rNA) from B/Malaysia/2506/04 (influenza B virus B/Malaysia/2506/04).
Assay: not given
Turning to B6, the Kd worked out at 0.00298 nM. B8: the dissociation constant (Kd) stood at 0.00242 nM. As for B9, the Kd is 0.00336 nM. Same read-out and setting: the same measure for B10: 0.00891 nM; for B11: 0.00511 nM. Same read-out and setting: the same measure for B12: 0.00472 nM. The same measure, in the same setting: the value for B13 was 0.958 nM; that for B14 was 0.65 nM. With B15, the Kd came to 1.16 nM.

For B16, the dissociation constant (Kd) is 0.68 nM. The same measure, in the same setting: the value for B17 was 0.28 nM. On the same count and under the same terms, the same measure for B18: 1.05 nM.

Another assay deals with neuraminidase of wild type B/Malaysia/2506/04 virus (influenza B virus B/Malaysia/2506/04).
Assay: not given
This is another data set of the same source.
B5: the IC50 (read off the curve) is 0.09 µg/mL. On the same count and under the same terms, the value for B15 was 0.3 µg/mL.

In the case of B16, the IC50 (read off the curve) amounted to 0.1 µg/mL.

The target of the next assay is recombinant neuraminidase (rNA) from B/Florida/04/2006 (influenza B virus B/Florida/04/06).
Assay: not given
This is another data set of the same source.
With B5, the EC50 (read off the curve) was 0.03 µg/mL. Same read-out and setting: the value for B15 was 0.03 µg/mL. Still for that read-out and setting: the same measure for B16: 0.03 µg/mL.

Turning to B18, the 50% effective concentration (EC50 (read off the curve)) was 0.05 µg/mL.

The target in a further assay is recombinant neuraminidase (rNA) from B/Malaysia/2506/04 (influenza B virus B/Malaysia/2506/04).
Assay: not given
The source holds these as a separate data set.
B6: the EC50 (read off the curve) turned out to be 0.06 µg/mL.

With B4, the EC50 (read off the curve) amounted to 0.05 µg/mL.
